The results in this text go back to patent US20230045284A1.

In this assay the target is Total cellular Ras (all isoforms KRas, HRas and NRas, endogenous, in human cell lines). As to the kind of experiment: cell-based or functional assay.

“RRSP*-DTB (catalytically inactive RRSP H4030A fused to DTB) (from UniProt P00588 186-535) (enzyme)”: the dose needed for depletion of RAS in HCT-116 spheroids relative to RRSP-DTB was found to be 10 fold.

As for “RRSP-CPD-DTa-DTB (RRSP fused to the MARTX cysteine protease domain and detoxified diphtheria toxin) (from UniProt P00588 33-567) (enzyme)”, the concentration giving partial RAS inactivation, western blot, HCT-116 cells turned out to be 100 pM.

Take “RRSP-DTB (RRSP fused via a (G4S)2 linker to diphtheria toxin residues 186-535, DTT-DTR) (from UniProt P00588 186-535) (enzyme)”: the IC50 of cell viability after 72 hours, HCT-116 cells is 1.5 pM; the IC50 of cell viability at 72 h, MDA-MB-436 cells came out at 5 pM; the IC50 of cell viability, MDA-MB-231 cells, 72 hours was determined as 12 pM; the IC50 of viability of HCT-116 spheroids after 7 days amounted to 85 pM. The same substance displayed a concentration giving complete cleavage of RAS after 1 h, western blot, MDA-MB-436 cells of 10 nM.
